Test results taken from patent US8242083B2, “Kinase substrates” (PerkinElmer Health Sciences, Inc., priority 2008, dated 2012).

How the values were obtained:
Type in all cases: biochemical
ITK = target: T1, ITK (Homo sapiens, UniProt Q08881); assay: TR-FRET kinase assay, ITK; conditions: Kinase Concentration 0.5 nM; 50 nM ULight-labeled substrate, 200 micromolar ATP, 2 hours
T1 sequence (Q08881 1-620): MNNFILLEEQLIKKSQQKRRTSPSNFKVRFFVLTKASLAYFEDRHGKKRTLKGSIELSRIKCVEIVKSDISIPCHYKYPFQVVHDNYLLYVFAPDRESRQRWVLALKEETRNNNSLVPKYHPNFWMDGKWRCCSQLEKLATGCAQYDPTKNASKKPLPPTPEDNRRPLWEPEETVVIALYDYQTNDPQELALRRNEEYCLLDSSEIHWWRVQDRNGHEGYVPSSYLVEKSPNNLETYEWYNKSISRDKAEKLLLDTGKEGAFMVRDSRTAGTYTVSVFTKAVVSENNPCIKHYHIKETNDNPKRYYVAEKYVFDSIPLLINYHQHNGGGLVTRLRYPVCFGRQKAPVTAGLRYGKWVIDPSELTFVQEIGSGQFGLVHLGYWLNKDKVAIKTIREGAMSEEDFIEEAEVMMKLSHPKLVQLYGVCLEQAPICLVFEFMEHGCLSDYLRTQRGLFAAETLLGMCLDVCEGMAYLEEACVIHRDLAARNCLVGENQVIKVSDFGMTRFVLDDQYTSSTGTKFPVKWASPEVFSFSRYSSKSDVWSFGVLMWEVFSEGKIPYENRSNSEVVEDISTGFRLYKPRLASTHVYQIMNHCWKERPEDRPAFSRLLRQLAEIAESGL
Experimental: (§1) TR-FRET kinase assays are performed under standardized conditions: various individual kinases are incubated with 50 nM of kinase substrate BRB1 labeled with the TR-FRET acceptor dye ULight (PerkinElmer) and 200 micromolar ATP in 10 μL of kinase assay buffer (50 mM HEPES pH7.5, 10 mM MgCl2, 3 mM MnCl2, 1 mM EGTA, 2 mM DTT and 0.01% Tween-20) for 2 hours at room temperature. Reactions are stopped with EDTA, and anti-phospho-tyrosine antibodies (clone PT66) labeled with the TR-FRET europium chelate donor dye are added to a final concentration of 2 nM in a final volume of 20 μL. The TR-FRET signal emitted at 665 nm is read one hour after the addition of antibodies using a TR-FRET plate reader such as the Envision® Multilabel Plate reader (PerkinElmer). The emitted signal at 665 nm is proportional to the extent of peptide phosphorylation, Control reactions indicative of background are performed excluding ATP from the reaction.
(§2) Assay conditions are identical to those used described for FIG. 1.

EphA2 = EphA2 (Homo sapiens, UniProt P29317); assay: TR-FRET kinase assay, EphA2; conditions: Kinase Concentration 0.25 nM; 50 nM ULight-labeled substrate, 200 micromolar ATP, 2 hours
Experimental: as §1, §2

HER2 = HER2 (Homo sapiens, UniProt P04626); assay: TR-FRET kinase assay, HER2; conditions: Kinase Concentration 10 nM; 50 nM ULight-labeled substrate, 200 micromolar ATP, 2 hours
Experimental: as §1, §2

EphA5 = EphA5 (Homo sapiens, UniProt P54756); assay: TR-FRET kinase assay, EphA5; conditions: Kinase Concentration 1 nM; 50 nM ULight-labeled substrate, 200 micromolar ATP, 2 hours
Experimental: as §1, §2

CTK = target: T2, CTK (Homo sapiens, UniProt P42679); assay: TR-FRET kinase assay, CTK; conditions: Kinase Concentration 20 nM; 50 nM ULight-labeled substrate, 200 micromolar ATP, 2 hours
T2 sequence (P42679 1-507): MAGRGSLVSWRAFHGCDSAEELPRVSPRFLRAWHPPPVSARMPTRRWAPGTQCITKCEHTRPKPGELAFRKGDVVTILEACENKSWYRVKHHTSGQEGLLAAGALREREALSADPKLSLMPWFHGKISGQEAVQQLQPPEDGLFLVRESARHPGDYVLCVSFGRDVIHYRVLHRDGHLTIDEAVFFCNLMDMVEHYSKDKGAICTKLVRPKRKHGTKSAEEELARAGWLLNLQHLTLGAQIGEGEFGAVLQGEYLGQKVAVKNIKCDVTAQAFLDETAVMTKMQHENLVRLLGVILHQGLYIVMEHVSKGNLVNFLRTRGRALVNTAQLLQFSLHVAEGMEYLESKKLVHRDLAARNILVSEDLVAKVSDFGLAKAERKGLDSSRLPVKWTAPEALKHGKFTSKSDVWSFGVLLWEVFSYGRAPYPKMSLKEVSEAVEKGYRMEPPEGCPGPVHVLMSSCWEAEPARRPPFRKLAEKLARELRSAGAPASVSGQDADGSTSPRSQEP
Experimental: as §1, §2

RON = RON (Homo sapiens, UniProt Q04912); assay: TR-FRET kinase assay, RON; conditions: Kinase Concentration 0.25 nM; 50 nM ULight-labeled substrate, 200 micromolar ATP, 2 hours
Experimental: as §1, §2

TRKB (NTRK2) = TRKB (NTRK2) (Homo sapiens, UniProt Q16620); assay: TR-FRET kinase assay, TRKB (NTRK2); conditions: Kinase Concentration 0.5 nM; 50 nM ULight-labeled substrate, 200 micromolar ATP, 2 hours
Experimental: as §1, §2

YES = YES (Homo sapiens, UniProt P07947); assay: TR-FRET kinase assay, YES; conditions: Kinase Concentration 0.25 nM; 50 nM ULight-labeled substrate, 200 micromolar ATP, 2 hours
Experimental: as §1, §2

BRK = BRK (Homo sapiens, UniProt Q13882); assay: TR-FRET kinase assay, BRK; conditions: Kinase Concentration 3 nM; 50 nM ULight-labeled substrate, 200 micromolar ATP, 2 hours
Experimental: as §1, §2

FRK = FRK (Homo sapiens, UniProt P42685); assay: TR-FRET kinase assay, FRK; conditions: Kinase Concentration 0.5 nM; 50 nM ULight-labeled substrate, 200 micromolar ATP, 2 hours
Experimental: as §1, §2

MET = MET (Homo sapiens, UniProt P08581); assay: TR-FRET kinase assay, MET; conditions: Kinase Concentration 0.5 nM; 50 nM ULight-labeled substrate, 200 micromolar ATP, 2 hours
Experimental: as §1, §2

MET, sequence (P08581 25-1390): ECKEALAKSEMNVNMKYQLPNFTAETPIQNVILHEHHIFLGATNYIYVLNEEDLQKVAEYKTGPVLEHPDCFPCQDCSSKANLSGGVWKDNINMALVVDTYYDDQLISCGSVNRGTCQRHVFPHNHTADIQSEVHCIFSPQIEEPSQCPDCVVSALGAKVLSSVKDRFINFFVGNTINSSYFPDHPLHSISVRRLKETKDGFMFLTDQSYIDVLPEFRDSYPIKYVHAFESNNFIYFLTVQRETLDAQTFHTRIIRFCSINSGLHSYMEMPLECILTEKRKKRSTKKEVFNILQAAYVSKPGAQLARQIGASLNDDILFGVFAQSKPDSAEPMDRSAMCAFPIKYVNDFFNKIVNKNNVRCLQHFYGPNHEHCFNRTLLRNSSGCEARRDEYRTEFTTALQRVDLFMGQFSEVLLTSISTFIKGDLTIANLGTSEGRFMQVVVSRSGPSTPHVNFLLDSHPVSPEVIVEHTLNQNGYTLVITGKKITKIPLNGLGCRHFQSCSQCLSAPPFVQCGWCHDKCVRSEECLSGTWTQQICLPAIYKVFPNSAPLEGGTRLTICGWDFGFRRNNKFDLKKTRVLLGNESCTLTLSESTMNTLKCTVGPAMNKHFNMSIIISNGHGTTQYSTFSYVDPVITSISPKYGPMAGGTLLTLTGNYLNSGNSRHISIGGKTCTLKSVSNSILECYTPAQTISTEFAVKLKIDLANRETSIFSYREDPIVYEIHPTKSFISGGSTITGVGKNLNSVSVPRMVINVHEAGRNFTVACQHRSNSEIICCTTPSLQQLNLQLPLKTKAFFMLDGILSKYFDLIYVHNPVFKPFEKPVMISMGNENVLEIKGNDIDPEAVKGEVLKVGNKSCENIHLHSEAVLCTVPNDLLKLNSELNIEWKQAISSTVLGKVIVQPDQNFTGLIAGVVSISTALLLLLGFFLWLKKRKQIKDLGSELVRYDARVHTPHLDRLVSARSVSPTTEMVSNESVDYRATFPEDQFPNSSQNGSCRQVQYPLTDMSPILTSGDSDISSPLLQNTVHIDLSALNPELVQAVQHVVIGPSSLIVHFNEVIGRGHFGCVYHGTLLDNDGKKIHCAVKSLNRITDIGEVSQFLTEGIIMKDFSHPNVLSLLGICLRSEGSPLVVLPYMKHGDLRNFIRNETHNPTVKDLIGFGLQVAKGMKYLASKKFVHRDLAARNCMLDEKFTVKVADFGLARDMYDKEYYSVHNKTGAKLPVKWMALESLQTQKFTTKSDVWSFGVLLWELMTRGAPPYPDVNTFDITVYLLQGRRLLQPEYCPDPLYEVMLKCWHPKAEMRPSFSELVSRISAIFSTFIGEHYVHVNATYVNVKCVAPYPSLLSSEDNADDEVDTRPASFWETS
FRK, sequence (P42685 whole entry, species assumed): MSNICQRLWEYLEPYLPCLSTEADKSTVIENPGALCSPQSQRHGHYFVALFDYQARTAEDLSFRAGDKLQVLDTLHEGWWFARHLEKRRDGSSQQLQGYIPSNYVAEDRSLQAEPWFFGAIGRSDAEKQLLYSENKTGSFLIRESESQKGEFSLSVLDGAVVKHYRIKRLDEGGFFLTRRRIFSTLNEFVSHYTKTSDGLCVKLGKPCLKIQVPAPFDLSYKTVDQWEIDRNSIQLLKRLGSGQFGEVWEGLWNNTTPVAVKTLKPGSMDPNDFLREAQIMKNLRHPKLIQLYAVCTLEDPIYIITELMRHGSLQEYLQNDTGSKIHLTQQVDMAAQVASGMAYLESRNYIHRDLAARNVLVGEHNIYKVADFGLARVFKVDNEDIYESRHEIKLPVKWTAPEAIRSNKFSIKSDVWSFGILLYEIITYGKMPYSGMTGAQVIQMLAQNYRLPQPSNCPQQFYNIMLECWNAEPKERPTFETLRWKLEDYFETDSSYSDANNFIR
YES, sequence (P07947 whole entry, species assumed): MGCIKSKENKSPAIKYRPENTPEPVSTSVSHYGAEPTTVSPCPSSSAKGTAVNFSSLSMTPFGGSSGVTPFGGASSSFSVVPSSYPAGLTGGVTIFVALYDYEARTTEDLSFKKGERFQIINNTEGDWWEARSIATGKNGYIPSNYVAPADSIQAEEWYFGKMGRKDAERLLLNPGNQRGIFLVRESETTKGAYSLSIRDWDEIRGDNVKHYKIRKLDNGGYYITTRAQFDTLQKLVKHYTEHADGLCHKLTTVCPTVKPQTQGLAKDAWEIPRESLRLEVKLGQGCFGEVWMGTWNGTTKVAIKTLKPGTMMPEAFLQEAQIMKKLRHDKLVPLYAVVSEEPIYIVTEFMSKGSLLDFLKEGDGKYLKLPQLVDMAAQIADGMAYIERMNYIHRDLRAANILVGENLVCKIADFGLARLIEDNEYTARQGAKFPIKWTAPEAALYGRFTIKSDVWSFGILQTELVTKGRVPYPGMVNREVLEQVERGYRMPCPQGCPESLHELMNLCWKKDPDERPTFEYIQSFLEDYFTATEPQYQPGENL
EphA5, sequence (P54756 25-1037, species assumed): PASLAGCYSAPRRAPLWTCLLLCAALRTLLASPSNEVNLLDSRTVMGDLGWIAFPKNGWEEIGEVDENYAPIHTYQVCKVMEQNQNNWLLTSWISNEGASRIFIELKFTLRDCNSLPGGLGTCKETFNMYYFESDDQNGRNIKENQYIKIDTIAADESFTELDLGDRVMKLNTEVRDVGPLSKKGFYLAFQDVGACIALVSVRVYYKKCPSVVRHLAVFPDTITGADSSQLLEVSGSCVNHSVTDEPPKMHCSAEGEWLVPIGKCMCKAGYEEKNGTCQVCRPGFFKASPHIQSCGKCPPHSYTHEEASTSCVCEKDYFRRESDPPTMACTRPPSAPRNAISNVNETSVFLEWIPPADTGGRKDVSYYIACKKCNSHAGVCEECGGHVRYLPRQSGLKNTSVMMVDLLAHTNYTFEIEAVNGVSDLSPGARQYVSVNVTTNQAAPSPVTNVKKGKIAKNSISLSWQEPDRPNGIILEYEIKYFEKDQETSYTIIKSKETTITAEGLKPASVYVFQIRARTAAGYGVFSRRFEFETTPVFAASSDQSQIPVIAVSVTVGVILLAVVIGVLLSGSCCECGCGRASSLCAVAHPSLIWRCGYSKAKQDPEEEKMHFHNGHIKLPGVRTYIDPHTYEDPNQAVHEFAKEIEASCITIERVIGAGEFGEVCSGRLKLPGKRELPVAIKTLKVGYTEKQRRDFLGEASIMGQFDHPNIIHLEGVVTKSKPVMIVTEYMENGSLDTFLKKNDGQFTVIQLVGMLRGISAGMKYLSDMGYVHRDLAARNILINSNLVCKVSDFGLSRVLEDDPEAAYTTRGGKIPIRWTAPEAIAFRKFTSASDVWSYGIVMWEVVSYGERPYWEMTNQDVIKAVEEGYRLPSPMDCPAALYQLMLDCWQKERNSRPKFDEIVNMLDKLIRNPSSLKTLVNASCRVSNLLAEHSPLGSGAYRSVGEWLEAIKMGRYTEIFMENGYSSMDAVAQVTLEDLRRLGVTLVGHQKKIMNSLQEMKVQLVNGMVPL
BRK, sequence (Q13882 whole entry, species assumed): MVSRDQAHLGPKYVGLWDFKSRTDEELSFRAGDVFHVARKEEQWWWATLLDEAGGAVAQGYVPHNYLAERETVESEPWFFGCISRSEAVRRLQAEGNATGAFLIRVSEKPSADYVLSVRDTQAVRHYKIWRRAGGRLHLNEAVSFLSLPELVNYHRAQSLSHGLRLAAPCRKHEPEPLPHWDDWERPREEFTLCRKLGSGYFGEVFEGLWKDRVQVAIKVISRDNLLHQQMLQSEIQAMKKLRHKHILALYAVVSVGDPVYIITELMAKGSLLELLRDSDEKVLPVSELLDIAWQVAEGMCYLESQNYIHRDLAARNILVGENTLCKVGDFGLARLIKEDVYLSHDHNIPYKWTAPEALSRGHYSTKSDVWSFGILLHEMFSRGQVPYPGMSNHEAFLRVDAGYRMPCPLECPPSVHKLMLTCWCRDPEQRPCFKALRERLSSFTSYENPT

Q: “C AYE AYE AYE K EYA EYA EYA K AYA EYE R (CAYEAYEAYEKEYAEYAEYAKAYAEYER; tyrosine kinase substrate peptide) [BRB1]” was tested. Which “Signal to Noise ratio with BRB1 Peptide” value (ITK) did it give?
A: 8.4

Q: And the “Signal to Noise ratio with BRB1 Peptide” value (EphA2)?
A: 26.9

Q: And the “Signal to Noise ratio with BRB1 Peptide” value (HER2)?
A: 1.4

Q: What about the “Signal to Noise ratio with BRB1 Peptide” value (EphA5) of the same sequence?
A: 35.5

Q: What about the “Signal to Noise ratio with BRB1 Peptide” value (CTK) of the same sequence?
A: 2.5

Q: What about the “Signal to Noise ratio with BRB1 Peptide” value (RON) of the same sequence?
A: 3.5

Q: What about the “Signal to Noise ratio with BRB1 Peptide” value (TRKB (NTRK2)) of the same sequence?
A: 28.0

Q: And the “Signal to Noise ratio with BRB1 Peptide” value (YES)?
A: 28.0

Q: What about the “Signal to Noise ratio with BRB1 Peptide” value (BRK) of the same sequence?
A: 2.4

Q: And the “Signal to Noise ratio with BRB1 Peptide” value (FRK)?
A: 9.7

Q: What about the “Signal to Noise ratio with BRB1 Peptide” value (MET) of the same sequence?
A: 24.2
